Consider four molecules from US20020150888A1 (published 2002).

Like-named read-outs stand apart in the source and are kept apart here.

Sequences and labels used below:
B1: RANTES (ligand, UniProt P13501 24-91, looked up)
chain: SPYSSDTTPCCFAYIARPLPRAHIKEYFYTSGKCSNPAVVFVTRKNRQVCANPEKKWVREYINSLEMS
B2: FLAG-tagged 88C receptor (receptor)
chain: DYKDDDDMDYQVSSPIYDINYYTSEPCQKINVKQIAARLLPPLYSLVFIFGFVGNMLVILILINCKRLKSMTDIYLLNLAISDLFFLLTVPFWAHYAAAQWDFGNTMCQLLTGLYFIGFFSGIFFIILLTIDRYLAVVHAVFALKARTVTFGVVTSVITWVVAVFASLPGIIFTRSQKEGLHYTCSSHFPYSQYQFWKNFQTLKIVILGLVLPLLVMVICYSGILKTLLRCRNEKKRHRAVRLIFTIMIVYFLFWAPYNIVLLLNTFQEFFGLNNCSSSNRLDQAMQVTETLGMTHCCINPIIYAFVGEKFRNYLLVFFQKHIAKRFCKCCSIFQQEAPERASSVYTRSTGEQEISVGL
B3: MIP-1β (ligand, UniProt P13236 24-92, looked up)
chain: APMGSDPPTACCFSYTARKLPRNFVVDYYETSSLCSQPAVVFQTKRSKQVCADPSESWVQEYVYDLELN
notes: also called MIP-1p

In assay [1] the target is FLAG-tagged 88C receptor (human). Description: cell-based or functional assay.
Assay [2] shares this target. The experiment in a line: competition of unlabelled ligand with 1.5 nM 125I-MIP-1β on HEK-293 cells transfected with FLAG-tagged 88C.
For assay [3], the target named is B2. Description: cell-based or functional assay.
Assay [4] addresses B2. The experiment in a line: competition of unlabelled ligand with 1.5 nM 125I-MIP-1β on HEK-293 cells transfected with FLAG-tagged 88C.
The target of assay [5] is B3. Description: equilibrium binding of 125I-MIP-1β to HEK-293 cells transfected with FLAG-tagged 88C, Scatchard analysis.

The molecule “MIP-1α (from UniProt P10147 24-92) (ligand)” had an EC50 of inositol phosphate formation (phospholipase C assay, COS-7 cells co-transfected with Gqi5) in assay [1] of 22 nM. Also, in assay [2], the IC50 was 7.4 nM.

With B1, the “EC50 of inositol phosphate formation (phospholipase C assay, COS-7 cells co-transfected with Gqi5)” value in assay [3] amounted to 1 nM. Also, the IC50 in assay [4] was determined as 6.9 nM.

The molecule B2 had an equilibrium dissociation constant (Kd) in assay [5] of 1.6 nM.

As for B3, the “EC50 of inositol phosphate formation (phospholipase C assay, COS-7 cells co-transfected with Gqi5)” value in assay [3] was 6 nM. Besides, in assay [4], the IC50 was 7.4 nM.

Broadly, the IC50 is the concentration that inhibits the measured activity by half. Read a low IC50 as inhibition by little substance. By Kd is commonly meant the free concentration of one partner at which half of the binding sites on the other are occupied at equilibrium, for simple one-to-one binding. Read a high Kd as weaker binding.
